Results published in US20080299132A1, “Synergistic compositions for treating HIV-1” (Roche Palo Alto LLC, priority 2006, published 2008).

How the values were obtained:
CCR5 [1] = biological target: T1, CCR5 (Homo sapiens, UniProt P51681); test: Drug interaction (synergy) analysis of two-drug combinations in the CCF assay (Greco and Prichard models); assay type: cell-based; set-up: host or cells: CEM-NKr-CCR5-Luc
Excerpt: For the in vitro cell-cell fusion studies, the possibility of either enhanced (synergy) or reduced (antagonism) efficacy of CCR5 antibodies in combination with CCR5 antagonists was considered.
The concentration response surface approach described by Greco et al. (Cancer Res. 1990 50:5318-5327) was used to analyze the data. A seven-parameter non-linear model (i) was fit to all experimental data including percent inhibitions calculated from replicates for all concentrations of the two drugs alone and in combination from two 384-well plates. […]
Loewe additivity or no interaction is indicated when the 95% confidence interval of a includes 0. Furthermore, the predicted additivity of the drugs combined was calculated by using all estimated parameters of the Greco model, except a that is fixed at 0. […]
Theoretical additive interactions were calculated from the dose response curves of the individual drugs based on the Bliss Independence equation. […]
The total sum of differences between the observed percent inhibitions and the upper bound of 95% confidence interval of predicted additive percentages is calculated as a statistically significant synergy volume ΣSYN. The total sum of differences between the observed percent inhibitions and the lower bound of 95% confidence interval of predicted additive percentages is calculated as a statistically significant antagonism volume ΣANT. […]

CCR5 [2] = biological target: T1, CCR5; conditions: cited from earlier work
CCR5 [3] = biological target: T1, CCR5; test: CCR5 mAb binding to CHO-CCR5 cells after pre-incubation with CCR5 antagonists (FACS); conditions: pre-incubation with 50 nM MVC, AK602 or SCH-D, RT 1 h
Excerpt: FIG. 4—The graph illustrates the effect of CCR5 antagonists on the time course of 5 mAb binding. […] The time course curves for each mAb in the presence of various antagonists were created based on their mean fluorescence intensity (MFI) values.
(§1) The potential for synergism should be maximized when both the antibody and the low molecular weight antagonist (or fusion or attachment inhibitor) can bind independently to the CCR5 receptor.

CCR5 [4] = biological target: T1, CCR5; test: 3H-MVC binding to CHO-CCR5 cells after pre-incubation with CCR5 mAbs; conditions: CHO-CCR5 cells preincubated with 30 μg/mL mAb, 26 nM 3H-MVC
Protocol: The cells (2×10^5/100 μL) were pre-incubated with 30 μg/mL of CCR5 mAbs or PBS at RT for 1 h, then incubated with 26 nM of ^3H-MVC. At the end of various time points, cells were washed and the membrane bound ^3H-MVC was measured as described in Example 2. The maximal counts from the control samples were set as 100% binding and the relative binding for all other samples were calculated and the time course curves were generated based on these relative binding at each time point.
as §1

T1 sequence (P51681 whole entry): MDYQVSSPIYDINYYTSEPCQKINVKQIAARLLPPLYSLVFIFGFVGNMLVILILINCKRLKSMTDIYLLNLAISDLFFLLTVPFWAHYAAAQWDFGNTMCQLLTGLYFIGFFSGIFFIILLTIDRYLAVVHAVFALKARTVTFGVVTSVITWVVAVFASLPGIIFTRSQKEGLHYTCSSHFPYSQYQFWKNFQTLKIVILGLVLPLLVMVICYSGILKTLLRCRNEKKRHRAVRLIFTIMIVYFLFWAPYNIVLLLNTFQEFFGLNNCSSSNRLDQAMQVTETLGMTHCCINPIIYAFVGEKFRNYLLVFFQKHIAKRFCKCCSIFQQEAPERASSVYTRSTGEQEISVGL

| Molecule | drug interaction in words (synergy / antagonism) (CCR5 [1]; combination in cell-cell fusion assay) | effect on the binding of mAb 45523, in words (CCR5 [2]) | higher synergy than ROAb14 when combined with MVC (CCR5 [1]; combination with MVC) | mAb binding to CHO-CCR5 cells, effect of CCR5 antagonists, in words (CCR5 [3]) | effect on MVC binding, in words (CCR5 [4]) |
| --- | --- | --- | --- | --- | --- |
| CCCCN1C(=O)[C@@H]([C@H](O)C2CCCCC2)NC(=O)C12CCN(Cc1ccc(Oc3ccc(C(=O)O)cc3)cc1)CC2 [AK602, reference compound] | highest synergy | completely blocked |  |  |  |
| RoAb13: mouse anti-human CCR5 monoclonal antibody (Roche), binds the N-terminal end of CCR5 (antibody, V domains shown) VH: EVKLVESGGGLVKPGGSLKLSCAASGFTFSTYAMSWVRQTPEKRLEWVASISTGDNTYYTDSVRGRFTISRDNARNILYLQMSSLRSEDTAMYFCTRGRGDRGDLFGYWGQGTLVTVSS VL: DIVMSQSPSSLAVSVGEKVTMSCKSSQSLLYRGNQMNYLAWYQQKPGQSPKLLIYWASTRESGVPDRFTGSGSGTEFTLTISSVKAEDLTVYYCQQYYTYPRTFGGGTKLEIKR |  |  | approximately 60% | unaffected | no effect |
